Assay results published in US20220031857A1 (OSSIANIX, published 2022).
“And” between values parts separate entries of the source, which are not always exact repeats. Equal values may be shown once. Each block holds one binder with its values, some of them ahead of it.

Tests used:
[1] = molecular target: T1, recombinant mouse TfR1 (transferrin receptor 1) (mouse, UniProt Q62351 89-763); assay: Octet, mouse TfR1 on anti-His biosensors, analyte 10 nM, PBS pH 6.0
T1 construct: Bought recombinant His-tagged protein; also called mTfR1
T1 sequence (Q62351 89-763 limits assumed): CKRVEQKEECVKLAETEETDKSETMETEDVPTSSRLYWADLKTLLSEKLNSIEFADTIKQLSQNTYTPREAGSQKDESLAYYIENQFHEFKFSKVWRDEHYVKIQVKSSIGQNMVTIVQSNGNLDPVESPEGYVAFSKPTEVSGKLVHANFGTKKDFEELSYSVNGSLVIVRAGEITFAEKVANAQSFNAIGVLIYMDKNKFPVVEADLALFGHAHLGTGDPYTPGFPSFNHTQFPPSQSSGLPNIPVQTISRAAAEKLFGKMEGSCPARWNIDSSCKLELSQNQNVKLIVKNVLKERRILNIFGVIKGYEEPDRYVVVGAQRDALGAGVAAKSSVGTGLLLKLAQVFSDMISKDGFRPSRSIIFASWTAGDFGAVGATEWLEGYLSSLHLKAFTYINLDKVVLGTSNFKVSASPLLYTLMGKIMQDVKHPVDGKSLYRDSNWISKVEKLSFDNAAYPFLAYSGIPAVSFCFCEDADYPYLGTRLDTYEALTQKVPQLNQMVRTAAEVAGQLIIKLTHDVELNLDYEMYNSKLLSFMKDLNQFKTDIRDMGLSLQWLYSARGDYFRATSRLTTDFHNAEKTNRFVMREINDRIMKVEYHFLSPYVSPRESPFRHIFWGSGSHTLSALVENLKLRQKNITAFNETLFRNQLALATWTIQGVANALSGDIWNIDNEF
Method: (§1) Binding kinetics of selected VNAR-Fcs to mouse TfR1 at pH 7.2 and pH 6.0 was measured by […] (Octet). Mouse TfR1 (10 μg/ml) was immobilised on anti-His biosensors and the binding kinetics of VNAR-Fcs and 8D3 antibody (10 nM) was measured at pH 7.2 and pH 6.0 in phosphate buffered saline (PBS) (Table 8).

[2] = molecular target: T1, recombinant mouse TfR1 (transferrin …); assay: Octet, mouse TfR1 on anti-His biosensors, analyte 10 nM, PBS pH 7.2
Method: as §1

[3] = molecular target: T1, recombinant mouse TfR1 (transferrin …); assay: SPR (Biacore), single-cycle kinetics, His-tagged TfR1 captured, VNAR-Fc injected
Method: (§2) Binding kinetics of VNAR-Fcs was determined by surface plasmon resonance (Biacore T200, GE Healthcare). CM5 chips were coated with anti-His antibodies (His Capture Kit, GE Healthcare) as recommended by the manufacturer and human or mouse his-tagged TfR1 (SinoBiological) at 10 ug/mL in HBS-EP+ (GE Healthcare) was captured at flow rate 10 ul/min (contact time 120 s). […] A flow cell without TfR1 captured served as a reference. Sensorgrams were fitted and kinetic constants were determined using Biacore T200 Evaluation software. Chips were regenerated in 10 mM Glycine-HCl, pH 1.5 (contact time: 120 s at flow rate 30 ul/min).

[4] = molecular target: T2, recombinant human TfR1 (transferrin receptor 1) (human, UniProt P02786 89-760); assay: as above
T2 construct: Bought recombinant His-tagged protein; also called hTfR1
T2 sequence (P02786 89-760 limits assumed): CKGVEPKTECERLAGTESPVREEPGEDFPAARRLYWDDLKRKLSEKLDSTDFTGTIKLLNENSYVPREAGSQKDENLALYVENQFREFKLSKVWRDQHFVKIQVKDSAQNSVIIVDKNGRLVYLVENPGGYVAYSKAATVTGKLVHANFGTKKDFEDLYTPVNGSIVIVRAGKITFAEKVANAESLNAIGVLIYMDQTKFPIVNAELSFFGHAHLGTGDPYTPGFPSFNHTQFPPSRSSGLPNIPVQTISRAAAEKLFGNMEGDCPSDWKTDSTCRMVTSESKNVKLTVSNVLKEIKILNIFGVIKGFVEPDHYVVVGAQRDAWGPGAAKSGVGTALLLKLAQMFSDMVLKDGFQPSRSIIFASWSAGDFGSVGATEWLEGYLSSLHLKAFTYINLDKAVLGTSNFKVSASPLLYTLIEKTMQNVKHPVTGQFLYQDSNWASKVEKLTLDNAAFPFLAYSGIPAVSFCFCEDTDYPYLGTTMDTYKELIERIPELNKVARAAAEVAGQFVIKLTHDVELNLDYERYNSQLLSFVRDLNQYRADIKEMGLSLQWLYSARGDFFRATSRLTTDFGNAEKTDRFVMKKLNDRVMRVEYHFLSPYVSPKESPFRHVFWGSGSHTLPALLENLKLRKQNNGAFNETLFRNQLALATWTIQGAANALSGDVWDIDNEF
Method: as §2

[5] = molecular target: T1, recombinant mouse TfR1 (transferrin …); assay: ELISA, plate coated with 1 µg/ml recombinant mouse TfR1, purified VNAR-Fc titrated, 4-parameter fit
Method: (§3) It was previously reported that affinity might play a crucial role in TfR1 mediated brain penetration. […] Affinity estimation and unspecific binding was initially assessed using ELISA for human and mouse TfR1.
(§4) The next day the plates were blocked with […] with 0.1% Tween20 (PBST) for 1 hour at room temperature. Transfected cells were spun down at 2000 rpm for 10 minutes and the collected supernatant was mixed with milk in PBST to a final 2.5% concentration and incubated for 30 minutes. 100 μl of blocked supernatant was transferred into coated plates and incubated for 1 hour. […] The plates were washed and developed with TMB detection solution before stopping the reaction with 1% HCl. Absorbance was measured at 450 nm. A VNAR-Fc at know concentration was used for standard curve to calculate VNAR-Fc expression level.

human serum albumin = molecular target: T3, human serum albumin (human, UniProt P02768 25-609); assay: ELISA with Expi293 culture medium used directly, coated HSA, anti-Fc detection
T3 construct: Negative control protein; also called HSA
T3 sequence (P02768 25-609 limits assumed): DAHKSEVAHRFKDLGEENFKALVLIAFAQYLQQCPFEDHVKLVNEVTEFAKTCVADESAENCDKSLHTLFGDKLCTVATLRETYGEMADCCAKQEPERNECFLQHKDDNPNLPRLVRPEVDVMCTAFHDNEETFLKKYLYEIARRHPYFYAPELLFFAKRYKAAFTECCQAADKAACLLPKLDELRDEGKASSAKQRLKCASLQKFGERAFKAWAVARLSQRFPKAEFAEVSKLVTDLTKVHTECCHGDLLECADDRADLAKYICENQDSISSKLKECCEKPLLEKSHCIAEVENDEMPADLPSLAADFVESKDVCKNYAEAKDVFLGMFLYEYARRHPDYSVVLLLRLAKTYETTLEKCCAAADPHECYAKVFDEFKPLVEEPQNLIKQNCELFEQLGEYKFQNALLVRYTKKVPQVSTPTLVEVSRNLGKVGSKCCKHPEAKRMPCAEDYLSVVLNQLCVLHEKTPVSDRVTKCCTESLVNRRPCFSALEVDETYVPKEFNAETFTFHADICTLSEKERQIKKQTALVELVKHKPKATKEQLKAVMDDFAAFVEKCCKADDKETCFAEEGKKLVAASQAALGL
Method: (§5) FIG. 6. […] The VNAR-Fc fusion proteins were transiently expressed using Expi293 expression system. VNAR-Fc constructs contained signal peptide sequence in order to be secreted. Cell growth media was used directly in ELISA. HSA and mouse TfR2 were used as negative controls for unspecific binding. A clone in position 52 represents untransfected cells. Total Fc concentration was measured with capture and detection anti-Fc antibody pair using irrelevant VNAR-Fc at known concentration for standard curve.
as §4

recombinant mouse TfR2 = molecular target: T4, recombinant mouse TfR2 (mouse, UniProt Q9JKX3 103-798, limits assumed); assay: ELISA with Expi293 culture medium used directly, coated mouse TfR2, anti-Fc detection
T4 construct: Negative control protein
T4 sequence (looked up): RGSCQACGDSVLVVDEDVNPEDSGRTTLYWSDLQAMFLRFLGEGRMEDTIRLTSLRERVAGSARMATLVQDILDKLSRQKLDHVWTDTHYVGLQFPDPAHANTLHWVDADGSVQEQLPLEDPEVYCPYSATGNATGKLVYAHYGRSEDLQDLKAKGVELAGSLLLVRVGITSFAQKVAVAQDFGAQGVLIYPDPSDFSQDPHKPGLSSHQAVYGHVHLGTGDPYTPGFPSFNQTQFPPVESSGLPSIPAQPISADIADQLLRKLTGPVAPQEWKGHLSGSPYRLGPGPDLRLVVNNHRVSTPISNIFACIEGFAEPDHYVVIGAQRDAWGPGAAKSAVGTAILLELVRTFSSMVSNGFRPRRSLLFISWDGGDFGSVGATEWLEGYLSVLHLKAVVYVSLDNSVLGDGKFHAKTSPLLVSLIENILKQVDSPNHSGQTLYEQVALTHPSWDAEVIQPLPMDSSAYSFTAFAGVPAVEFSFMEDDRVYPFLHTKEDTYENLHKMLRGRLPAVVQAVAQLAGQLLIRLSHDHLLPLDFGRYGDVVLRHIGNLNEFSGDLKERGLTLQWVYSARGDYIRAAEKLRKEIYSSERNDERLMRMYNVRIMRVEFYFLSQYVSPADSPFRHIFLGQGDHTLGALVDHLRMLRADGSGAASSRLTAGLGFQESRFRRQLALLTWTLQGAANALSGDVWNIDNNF
Method: as §5, §4

[6] = molecular target: T2, recombinant human TfR1 (transferrin …); assay: ELISA, plate coated with 1 µg/ml recombinant human TfR1, purified VNAR-Fc titrated, 4-parameter fit
Method: as §3, §4

[7] = molecular target: T1, recombinant mouse TfR1 (transferrin …); assay: ELISA on mouse TfR1
[8] = molecular target: T2, recombinant human TfR1 (transferrin …); assay: Octet, human TfR1 immobilised; 8D3 as first antibody, which does not bind human TfR1 (grey column); white cell
Method: FIGS. 15A and 15B. Epitope binning by cross-competition binding to mouse and human TfR1. VNAR-Fc fusion proteins were tested for cross-blocking in a pairwise manner against mouse (A) and human TfR1 (B) immobilised on biosensors using the Octet platform.
A series of biochemical parameters was examined to further characterize the panel VNAR to TfR1 obtained from in vivo phage display selections. Epitope binning experiments were performed to assess whether the VNARs could compete against each other for binding to either the mouse or human TfR1. […] Because each VNAR binds via a unique CDR3 region with a different structural topography, steric interactions could be important efficient transcytosis.

[9] = molecular target: T1, recombinant mouse TfR1 (transferrin …); assay: SPR (Biacore), single-cycle kinetics, His-tagged TfR1 captured, VNAR-Fc injected; SPR single cycle kinetics, immobilised mouse TfR1, VNAR-Fc up to 250 nM
Method: as §2

[10] = molecular target: T1, recombinant mouse TfR1 (transferrin …); assay: ELISA, plate coated with 1 µg/ml recombinant mouse TfR1, purified VNAR-Fc titrated, 4-parameter fit; Clone 2 stands twice in the legend
[11] = molecular target: T2, recombinant human TfR1 (transferrin …); assay: ELISA with Expi293 culture medium used directly, coated human TfR1, anti-Fc detection, absorbance at 450 nm
Method: as §5, §4

B3: Clone 39 VNAR-Fc fusion protein (Fc fusion)
chain: ARVDQTPQTITKETGESLTINCVLRDSNCALSSTLWYRTKSGSRNEESISKGGRYVETVNSGSKSFSLKINDLTVEDSGTYRCNVQGMVYDGSSFWWCDVYGDSTAVTVNA
notes: Bivalent VNAR-Fc; not shown: glycine/serine linker (GxSx)n extending the hinge; human IgG1 Fc (hinge, CH2, CH3) of pFUSE-hIgG1e3-Fc2; G236 also deleted
Kd [4]: 7.22 nM
koff [4]: 0.000684 s⁻¹
kon [4]: 94700 M⁻¹ s⁻¹
EC50 [5]: 1530 nM
binding result (human serum albumin): no binding
Kd [9]: 18.3 nM
koff [9]: 0.00294 s⁻¹
kon [9]: 161000 M⁻¹ s⁻¹
binding result (recombinant mouse TfR2): no binding
EC50 [6]: 257 nM
Octet signal as second antibody after 8D3 [8]: 0.609

B4: Clone 2 VNAR-Fc fusion protein (Fc fusion)
chain: ARVDQTPQTITKETGESLTINCVLRDNNCALSTTYWYRKKSGSTNEENISKGGRYVETVNSGSKSFSLKINDLTVEDSGTYRCNVFGVDNGWWCDVYGGGTVVTVNA
notes: as for B3
EC50 [10]: 433 nM and 761 nM
Kd [3]: 2.56 nM
koff [3]: 0.000501 s⁻¹
kon [3]: 195000 M⁻¹ s⁻¹
Kd [4]: 2.34 nM
koff [4]: 0.000445 s⁻¹
kon [4]: 190000 M⁻¹ s⁻¹
binding result (human serum albumin): no binding
binding result (recombinant mouse TfR2): no binding
Octet signal as second antibody after 8D3 [8]: 0.454

B5: Clone 11 VNAR-Fc fusion protein (Fc fusion)
chain: ARVDQTPQTITKETGESLTINCVLRDSNCALPSTHWYRKKSGSTNEESISKGGRYVETVNSGSKSFSLRINDLTVEDSGTYRCKVLNFFTHTCVQVQKYDVYGGGTAVTVNA
notes: as for B3
binding result [11]: binds
binding result (human serum albumin): no binding
binding result (recombinant mouse TfR2): no binding

Other lines, results leading:

Kd [1]: 0.541 nM
koff [1]: 0.00036 s⁻¹
kon [1]: 666000 M⁻¹ s⁻¹
Kd [2]: 0.363 nM
koff [2]: 0.000292 s⁻¹
kon [2]: 804000 M⁻¹ s⁻¹
Kd [3]: 3.34 nM
koff [3]: 0.00025 s⁻¹
kon [3]: 74700 M⁻¹ s⁻¹
Kd [4]: 1.87 nM
koff [4]: 0.000123 s⁻¹
kon [4]: 66000 M⁻¹ s⁻¹
EC50 [5]: 15.9 nM
binding result (human serum albumin): no binding
binding result (recombinant mouse TfR2): no binding
EC50 [6]: 4.67 nM
EC50 [7]: 4.83 nM
Octet signal as second antibody after 8D3 [8]: 0.329
B1: Clone 1 VNAR-Fc fusion protein (Fc fusion)
chain: ARVDQTPQTITKETGESLTINCVLRDNNCALSTTYWYRKKSGSTNEENISKGGRYVETVNSGSKSFSLKINDLTVEDSGTYRCNVRDVQACGNDWVWLDVYGGGTVVTVNA
notes: Bivalent VNAR-Fc; also called clone 1-Fc; not shown: glycine/serine linker (GxSx)n extending the hinge; human IgG1 Fc (hinge, CH2, CH3) of pFUSE-hIgG1e3-Fc2; G236 also deleted

Kd [1]: 0.419 nM
koff [1]: 0.0003 s⁻¹
kon [1]: 715000 M⁻¹ s⁻¹
Kd [2]: 0.0703 nM
koff [2]: 4.43e-05 s⁻¹
kon [2]: 630000 M⁻¹ s⁻¹
Kd [3]: 0.408 nM
koff [3]: 0.000116 s⁻¹
kon [3]: 285000 M⁻¹ s⁻¹
Kd [4]: 0.523 nM
koff [4]: 0.00016 s⁻¹
kon [4]: 306000 M⁻¹ s⁻¹
EC50 [5]: 11.9 nM
binding result (human serum albumin): no binding
binding result (recombinant mouse TfR2): no binding
EC50 [6]: 2.45 nM
EC50 [7]: 2.96 nM
Octet signal as second antibody after 8D3 [8]: 0.546
B2: Clone 10 VNAR-Fc fusion protein (Fc fusion)
chain: ARVDQTPQTITKETGESLTINCVLRDSNCALSSTYWYRKKSGSTNEENISKGGRYVETVNSGSKSFSLRINDLTVEDSGTYRCNVVQYPSYNNYFWCDVYGDGTAVTVNA
notes: Bivalent VNAR-Fc; also called clone 10-Fc; Clone 10-hFc; not shown: glycine/serine linker (GxSx)n extending the hinge; human IgG1 Fc (hinge, CH2, CH3) of pFUSE-hIgG1e3-Fc2; G236 also deleted
